Assays:
[1] = target: fXI with Lys^83 and Gln^84 replaced with alanine, P03951
murine factor XI = target: T1, murine factor XI (murine, UniProt Q91Y47 19-624); test: immunoblot of recombinant proteins with 14E11 (FIG. 10A)
T1 construct: also called murine fXI (M); recombinant murine fXI

cow fXI = target: T2, cow fXI (cattle, UniProt Q5NTB3 19-625); test: immunoprecipitation from plasma with 14E11 beads, western blot with biotinylated 14E11
T2 construct: mature; Endogenous protein immunoprecipitated from plasma; also called cattle fXI
Protocol: Plasma was obtained from human, cattle, horse, pig, rabbit, raccoon, tiger, baboon, cat, chicken, dog African elephant and llama subjects, and serum was obtained from anteater. Plasma from a fXI-deficient human subject was used as a negative control. Plasma or serum (500 μl) was collected into sodium citrate and mixed with 500 μl Tris-HCl. […] The beads were washed once with 1 ml Tris-HCl, then eluted with 50 μl of non-reducing SDS-sample buffer.

binding result (murine factor XI)	binding result (cow fXI)	Binder	rate of activation in solution relative to fXI^WT [1]	specific activity in a contact activation initiated clotting assay relative to fXI^WT [1]
–	–	activated factor XII (protein) IPPWEAPKEHKYKAEEHTVVLTVTGEPCHFPFQYHRQLYHKCTHKGRPGPQPWCATTPNFDQDQRWGYCLEPKKVKDHCSKHSPCQKGGTCVNMPSGPHCLCPQHLTGNHCQKEKCFEPQLLRFFHKNEIWYRTEQAAVARCQCKGPDAHCQRLASQACRTNPCLHGGRCLEVEGHRLCHCPVGYTGAFCDVDTKASCYDGRGLSYRGLARTTLSGAPCQPWASEATYRNVTAEQARNWGLGGHAFCRNPDNDIRPWCFVLNRDRLSWEYCDLAQCQTPTQAAPPTPVSPRLHVPLMPAQPAPPKPQPTTRTPPQSQTPGALPAKREQPPSLTRNGPLSCGQRLRKSLSSMTRVVGGLVALRGAHPYIAALYWGHSFCAGSLIAPCWVLTAAHCLQDRPAPEDLTVVLGQERRNHSCEPCQTLAVRSYRLHEAFSPVSYQHDLALLRLQEDADGSCALLSPYVQPVCLPSGAARPSETTLCQVAGWGHQFEGAEEYASFLQEAQVPFLSLERCSAPDVHGSSILPGMLCAGFLEGGTDACQGDSGGPLVCEDQAAERRLTLQGIISWGSGCGDRNKPGVYTDVAYYLAWIREHTVS	about 65% of the rate of fXI^WT	100-150% of the specific activity of fXI^WT
binds	binds	monoclonal antibody 14E11 (antibody, V domains shown, also called anti-murine fXI IgG 14E11; anti-fXI IgG 14E11) VH: QVQLEESGPGLVAPSQSLSITCTVSGFSLTGYGIYWVRQPPGKGLEWLGMIWGDGRTDYNSALKSRLSISKDNSKSQVFLKMNSLQTDDTARYYCARDYYGSKDYWGQGTTLTVSS VL: DIVMTQSHKFMSTSVGDRVSITCKASQDVSTAVAWYQQKPGQSPKLLIYLTSYRNTGVPDRFTGSGSGTDFTFTISSVQAEDLAVYYCQQHYKTPYSFGGGTKLERLR	–	–

From patent publication US20110250207A1 (OREGON HEALTH AND SCIENCE UNIVERSITY, published 2011)
